# T1: rat betaglycan ZP-C domain (BG_(ZP-C)), mammalian-expressed
# T1 chain: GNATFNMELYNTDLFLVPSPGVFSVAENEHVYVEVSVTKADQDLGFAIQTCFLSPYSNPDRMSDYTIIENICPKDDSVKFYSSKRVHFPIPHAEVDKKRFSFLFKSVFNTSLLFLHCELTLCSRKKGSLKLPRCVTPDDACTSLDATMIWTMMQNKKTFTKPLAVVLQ
# T2: TGF-β2 (growth factor domain, wild type) (human)
# T2 sequence (P61812 303-414, looked up): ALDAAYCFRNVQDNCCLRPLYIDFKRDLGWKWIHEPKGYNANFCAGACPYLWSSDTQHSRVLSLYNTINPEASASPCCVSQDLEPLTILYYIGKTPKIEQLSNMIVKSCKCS
# T3: inhibin A (InhA), mature heterodimer, unlabelled, P05111;P08476
# T3 chain 1: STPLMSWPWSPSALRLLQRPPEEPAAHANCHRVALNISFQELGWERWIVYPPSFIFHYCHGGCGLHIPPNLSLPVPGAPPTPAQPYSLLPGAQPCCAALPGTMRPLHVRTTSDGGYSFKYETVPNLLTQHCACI
# T3 chain 2: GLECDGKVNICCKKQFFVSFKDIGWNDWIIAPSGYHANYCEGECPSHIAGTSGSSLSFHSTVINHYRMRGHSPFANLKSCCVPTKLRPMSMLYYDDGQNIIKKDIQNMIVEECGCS
# B1: TGF-β2 homodimer (growth factor domain), unlabelled Y50A; L51A (protein)
# chain: ALDAAYCFRNVQDNCCLRPLYIDFKRDLGWKWIHEPKGYNANFCAGACPAAWSSDTQHSRVLSLYNTINPEASASPCCVSQDLEPLTILYYIGKTPKIEQLSNMIVKSCKCS
# B2: rat betaglycan orphan domain (ratBGO), wild type (domain or fragment)
# chain: CELSPINASHPVQALMESFTVLSGCASRGTTGLPREVHVLNLRSTDQGPGQRQREVTLHLNPIASVHTHHKPIVFLLNSPQPLVWHLKTERLAAGVPRLFLVSEGSVVQFPSGNFSLTAETEERNFPQENEHLLRWAQKEYGAVTSFTELKIARNIYIKVGEDQVFPPTCNIGKNFLSLNYLAEYLQPKAAEGCVLPSQPHEKEVHIIELITPSSNPYSAFQVDIIVDIRPAQEDPEVVKNLVLILKCKKSVNWVIKSFDVKGNLKVIAPNSIGFGKESERSMTMTKLVRDDIPSTQENLMKWALDNGYRPVTSYTMAPVANRFHLRLEN
# B3: ratBGO-Y248A (domain or fragment)
# chain: CELSPINASHPVQALMESFTVLSGCASRGTTGLPREVHVLNLRSTDQGPGQRQREVTLHLNPIASVHTHHKPIVFLLNSPQPLVWHLKTERLAAGVPRLFLVSEGSVVQFPSGNFSLTAETEERNFPQENEHLLRWAQKEYGAVTSFTELKIARNIYIKVGEDQVFPPTCNIGKNFLSLNYLAEYLQPKAAEGCVLPSQPHEKEVHIIELITPSSNPASAFQVDIIVDIRPAQEDPEVVKNLVLILKCKKSVNWVIKSFDVKGNLKVIAPNSIGFGKESERSMTMTKLVRDDIPSTQENLMKWALDNGYRPVTSYTMAPVANRFHLRLEN
# B4: rat betaglycan ZP-C domain (BG_(ZP-C)), mammalian-expressed N82Y (protein)
# chain: GNATFNMELYNTDLFLVPSPGVFSVAENEHVYVEVSVTKADQDLGFAIQTCFLSPYSNPDRMSDYTIIEYICPKDDSVKFYSSKRVHFPIPHAEVDKKRFSFLFKSVFNTSLLFLHCELTLCSRKKGSLKLPRCVTPDDACTSLDATMIWTMMQNKKTFTKPLAVVLQ
# B5: rat betaglycan ZP-C domain (BGZP-C), wild type (domain or fragment)
# chain: GNATFNMELYNTDLFLVPSPGVFSVAENEHVYVEVSVTKADQDLGFAIQTCFLSPYSNPDRMSDYTIIENICPKDDSVKFYSSKRVHFPIPHAEVDKKRFSFLFKSVFNTSLLFLHCELTLCSRKKGSLKLPRCVTPDDACTSLDATMIWTMMQNKKTFTKPLAVVLQ
# B6: rat betaglycan ZP-C domain (BG_(ZP-C)), mammalian-expressed A158E (protein)
# chain: GNATFNMELYNTDLFLVPSPGVFSVAENEHVYVEVSVTKADQDLGFAIQTCFLSPYSNPDRMSDYTIIENICPKDDSVKFYSSKRVHFPIPHAEVDKKRFSFLFKSVFNTSLLFLHCELTLCSRKKGSLKLPRCVTPDDACTSLDETMIWTMMQNKKTFTKPLAVVLQ
# What was measured:
# [1] = molecular target: T1, rat betaglycan ZP-C domain (BG_(ZP-C)), …; test: SPR; conditions: chain shown with the change; analyte: BGZP-C; parent: est. 95; read off a plot
# [2] = molecular target: T2, TGF-β2 (growth factor domain, wild type) (human); test: SPR; TGF-β2 immobilised on the chip surface; ratBGO, zfBGO, ratBGO-zfBL or ratBGO-Y248A injected, 2-fold dilution series 500 - 31.3 nM; three consecutive repeats
# [3] = molecular target: T3, inhibin A (InhA), mature heterodimer, …; test: SPR; conditions: chain shown with the change
# [4] = molecular target: TGF-β2 (Q57A, K60A, L64A) (human); test: SPR; BIAcore T200; TGF-β2 WT or TGF-β2 mutants amine-coupled (EDC-NHS) to a CM4 chip, max 400 RU; zfBGO WT or BGZP-C WT injected, 2-fold dilution series 250 - 15.6 nM; 10 mM CHES, 150 mM NaCl, 3 mM EDTA, 0.01% P20, pH 8.0; 100 µl/min; 1:1 kinetic model with drift; three consecutive repeats
# [5] = molecular target: TGF-β2 (Y50A, L51A) (human); test: as above
# [6] = molecular target: T2, TGF-β2 (growth factor domain, wild type) (human); test: as above
# [7] = surface: InhA, parent: est. 1100 nM, read off a plot
binder,measurement,setting,value
B1,Kd,[1],110 nM
B2,Kd,[2],72 nM
B3,Kd,[2],102 nM
B4,Kd,[3]; [7],850 nM
B5,Kd,[4],99 nM
same,Kd,[5],113 nM
same,Kd,[6],95 nM
B6,Kd,"[3]; 500 - 15.6 nM, 2-fold dilution series",1810 nM
same,Kd,[3]; [7],1800 nM

# Reference: PMC11865472
